Here are results for one protein from patent publication EP2433948A1, “Use of a new class of nucleotide sugar as antibiotic or cytostatic agent” (Max-Planck-Gesellschaft zur Förderung der Wissenschaften …, priority 2010, dated 2012).

Substrate in this data set: CC(=O)N[C@H]1[C@@H](OP(=O)(O)OP(=O)(O)OC[C@H]2O[C@@H](n3ccc(=O)[nH]c3=O)[C@H](O)[C@@H]2O)O[C@H](CO)[C@@H](O)[C@@H]1O
In words: MurA activity/inhibition assay (phosphate release coupled to PNPase cleavage of fluorescent 7-methylguanosine). The conditions noted are these: other: 0.5 µM MurA, 1 mM phosphoenolpyruvate; best fit parameter of global fit; same as reported in literature; pH 7.5. It is filed as biochemical, E. coli. An excerpt: • (a) MurA performs the first step of UDP-muramic acid biosynthesis. After sequential binding of UNAG and phosphoenolpyruvate, a tetrahedral intermediate is formed that yields enolpyruvyl-UNAG after cleavage of inorganic phosphate. UNAG-3P most likely mimics this tetrahedral intermediate and thereby inhibits MurA catalysis by a competitive binding mechanism. (b) Determination of the Ki of UNAG-3P for MurA. Enolpyruvyl-UNAG formation catalyzed by MurA from E. coli in presence of PEP and UNAG-3P and varying UNAG concentrations under steady state conditions. MurA enzyme kinetics were followed by coupling the reaction to phosphate dependent cleavage of fluorescent 7-methylguanosine by nucleoside phosphorylase resulting in a strong decrease of the fluorescence at 400 nm (λexc = 300 nm). The UNAG-3P concentrations for each saturation curve were 0 µM (●), 15 µM (□) and 30 µM (Δ). A Lineweaver-Burk plot is shown as inset.
The enolpyruvyl activity of E. coli MurA was monitored by coupling phosphate release to cleavage of fluorescent 7-methylguanosine (Sigma) by bacterial purine-nucleoside phosphorylase (PNPase) (Sigma). […] The reactions were monitored by the decrease in fluorescence at 400 nm with excitation set to 300 nm in a FluoroMax-3 spectrofluorometer (HORIBA Jobin Yvon) with excitation and emission bandwidths of 5 nm. […]

B1: E. coli MurA (Escherichia coli K-12) (protein)
chain: MDKFRVQGPTKLQGEVTISGAKNAALPILFAALLAEEPVEIQNVPKLKDVDTSMKLLSQLGAKVERNGSVHIDARDVNVFCAPYDLVKTMRASIWALGPLVARFGQGQVSLPGGCTIGARPVDLHISGLEQLGATIKLEEGYVKASVDGRLKGAHIVMDKVSVGATVTIMCAATLAEGTTIIENAAREPEIVDTANFLITLGAKISGQGTDRIVIEGVERLGGGVYRVLPDRIETGTFLVAAAISRGKIICRNAQPDTLDAVLAKLRDAGADIEVGEDWISLDMHGKRPKAVNVRTAPHPAFPTDMQAQFTLLNLVAEGTGFITETVFENRFMHVPELSRMGAHAEIESNTVICHGVEKLSGAQVMATDLRASASLVLAGCIAEGTTVVDRIYHIDRGYERIEDKLRALGANIERVKGE
The Km is the substrate concentration at which the rate is half of its maximum. For B1, the Km is given as 15 µM.
